The text below walks through data of article PMC6927325.

For assay [1], the target named is fluorescein-labeled ALK peptide F1577…1587. The assay can be described thus: fluorescence polarisation; fluorescein-labeled peptides and GST-PTBi in solution. (Fluorescence polarisation rises when a labelled molecule tumbles more slowly, as on binding a larger partner.)
Assay [2] has as its target fluorescein-labeled ALK peptide G1473…1483. Described as above.

pKd: −log10 of the molar value.

Regarding “GST-fused NUMB PTB domain with the exon 3 insert (11 aa) (domain or fragment)”, the pKd (usually the negative decadic logarithm of the Kd, by convention in mol/L) in assay [1] was 6.30; in assay [2] it was 6.15.
